Paper PMC2937035

What was measured:
Assay in all cases: protein microarray
Conditions in all cases: Protein microarray binding buffer, salt, pH and temperature not given in the material
[1] = system: Gcy1 (Saccharomyces cerevisiae)
[2] = system: Khd1 (Hek2) (Saccharomyces cerevisiae)
[3] = system: Mdh3 (Saccharomyces cerevisiae)
[4] = system: Npl3 (Saccharomyces cerevisiae)
[5] = system: Pcs60 (Saccharomyces cerevisiae)
[6] = system: Rrp5 (Saccharomyces cerevisiae)
[7] = system: Scp160 (Saccharomyces cerevisiae)
[8] = system: She2 (Saccharomyces cerevisiae)
[9] = system: Ydl124w (Saccharomyces cerevisiae)

## ASH1 mRNA
[1]
  binding signal (normalized mean signal (Cy3); Cy5 19.6): 8.9
[2]
  binding signal (normalized mean signal (Cy3); Cy5 24.0): 3.4
[3]
  binding signal (normalized mean signal (Cy3); Cy5 60.2): 2.9
[4]
  binding signal (normalized mean signal (Cy3); Cy5 153.8): 7.1
[5]
  binding signal (normalized mean signal (Cy3); Cy5 89.8): 3.7
[6]
  binding signal (normalized mean signal (Cy3); Cy5 14.6): 3.8
[7]
  binding signal (normalized mean signal (Cy3); Cy5 117.7): 2.9
[8]
  binding signal (normalized mean signal (Cy3); Cy5 17.8): 17.1
[9]
  binding signal (normalized mean signal (Cy3); Cy5 14.6): 11.9
